Test results taken from US11306156.

Assays:
[1] = target: tissue factor (TF) antigen (UniProt P13726); assay: SPR; Fab captured by anti-His, TF as analyte; LCCA set 9374
[2] = target: tissue factor (TF) antigen (UniProt P13726); assay: SPR; Fab captured by anti-His, TF as analyte; LCCA set 9375
[3] = target: tissue factor (TF) antigen (UniProt P13726); assay: SPR; Fab captured by anti-His, TF as analyte; LCCA set 9060
[4] = target: D3H44 light chain Q124R_Q160K_T178R, N-terminal HA or FLAG tag; assay: LCCA, SPR of light chain tags, L1:L2 DNA 1:3 norm. to 1:1; other light chain m15
[5] = target: D3H44 light chain Q124R_Q160K_T178R, N-terminal HA or FLAG tag; assay: LCCA, SPR of light chain tags, L1:L2 DNA 1:3 norm. to 1:1; other light chain m16
[6] = target: D3H44 light chain Q124E_S131T_T178Y_T180E, N-terminal HA or FLAG tag; assay: LCCA, SPR of light chain tags, L1:L2 DNA 1:3 norm. to 1:1; other light chain m17
[7] = target: D3H44 light chain Q124E_S176L_T180E, N-terminal HA or FLAG tag; assay: as above
[8] = target: D3H44 light chain Q124E_V133D_S176L, N-terminal HA or FLAG tag; assay: as above
[9] = target: D3H44 light chain Q124R, N-terminal HA or FLAG tag; assay: LCCA, SPR of light chain tags, L1:L2 DNA 1:3 norm. to 1:1; other light chain m18
[10] = target: D3H44 light chain Q124E_V133D, N-terminal HA or FLAG tag; assay: LCCA, SPR of light chain tags, L1:L2 DNA 1:3 norm. to 1:1; other light chain m24
[11] = target: D3H44 light chain Q124E_V133E, N-terminal HA or FLAG tag; assay: as above
[12] = target: D3H44 light chain Q124R_Q160K_T178R, N-terminal HA or FLAG tag; assay: LCCA, SPR of light chain tags, L1:L2 DNA 1:3 norm. to 1:1; other light chain m27
[13] = target: D3H44 light chain Q124R, N-terminal HA or FLAG tag; assay: LCCA, SPR of light chain tags, L1:L2 DNA 1:3 norm. to 1:1; other light chain m28
[14] = target: D3H44 light chain Q124E_V133D_S176L, N-terminal HA or FLAG tag; assay: LCCA, SPR of light chain tags, L1:L2 DNA 1:9 norm. to 1:1; other light chain m17
[15] = target: D3H44 light chain Q124E_V133D, N-terminal HA or FLAG tag; assay: LCCA, SPR of light chain tags, L1:L2 DNA 1:9 norm. to 1:1; other light chain m24
[16] = target: D3H44 light chain Q124R_Q160K_T178R, N-terminal HA or FLAG tag; assay: LCCA, SPR of light chain tags, L1:L2 DNA 1:9 norm. to 1:1; other light chain m27
[17] = target: D3H44 light chain Q124R, N-terminal HA or FLAG tag; assay: LCCA, SPR of light chain tags, L1:L2 DNA 1:9 norm. to 1:1; other light chain m28
[18] = target: tissue factor (TF) antigen (UniProt P13726); assay: SPR; Fab captured by anti-His, TF as analyte; LCCA set 9116
[19] = target: D3H44 Fab heavy chain L143E_K145T_S188L, C-terminal ABD2-His6 tag; assay: LCCA: heavy chain co-expressed with two light chains, SPR detection of light chain tags; L1:L2 DNA 1:3, normalized to 1:1; competing light chain m11
[20] = target: D3H44 Fab heavy chain Q179K, C-terminal ABD2-His6 tag; assay: as above
[21] = target: D3H44 Fab heavy chain S186K, C-terminal ABD2-His6 tag; assay: as above
[22] = target: tissue factor (TF) antigen (UniProt P13726); assay: SPR; Fab captured by anti-His, TF as analyte; LCCA set 9104; estimated from the Fab differing only in L chain tag
[23] = target: tissue factor (TF) antigen (UniProt P13726); assay: SPR; reference wild-type D3H44 Fab; * estimated value
[24] = target: tissue factor (TF) antigen (UniProt P13726); assay: SPR, Fab captured by anti-His, TF as analyte; * estimated from Fab differing only in L chain tag
[25] = target: tissue factor (TF) antigen (UniProt P13726); assay: SPR; Fab captured by anti-His, TF as analyte; LCCA set 9814
[26] = target: tissue factor (TF) antigen (UniProt P13726); assay: SPR; Fab captured by anti-His, TF as analyte; LCCA set 9746
[27] = target: tissue factor (TF) antigen (UniProt P13726); assay: SPR; Fab captured by anti-His, TF as analyte; LCCA set 10549
[28] = target: tissue factor (TF) antigen (UniProt P13726); assay: SPR; Fab captured by anti-His, TF as analyte; LCCA set 10549 (identifier in reverse orientation, assigned by Table 12)
[29] = target: D3H44 light chain Q124E_S131T_T178F_T180E, N-terminal HA or FLAG tag; assay: LCCA, SPR of light chain tags, L1:L2 DNA 1:3 norm. to 1:1; other light chain m14
[30] = target: D3H44 light chain Q124E_S131T_T178Y_T180E, N-terminal HA or FLAG tag; assay: as above
[31] = target: D3H44 light chain Q124R_T178R, N-terminal HA or FLAG tag; assay: LCCA, SPR of light chain tags, L1:L2 DNA 1:3 norm. to 1:1; other light chain m15
[32] = target: D3H44 light chain Q124E_Q160E_T178E, N-terminal HA or FLAG tag; assay: LCCA, SPR of light chain tags, L1:L2 DNA 1:3 norm. to 1:1; other light chain m17
[33] = target: D3H44 light chain Q124E_T178E_T180E, N-terminal HA or FLAG tag; assay: as above
[34] = target: D3H44 light chain Q124R_T178R, N-terminal HA or FLAG tag; assay: LCCA, SPR of light chain tags, L1:L2 DNA 1:3 norm. to 1:1; other light chain m20
[35] = target: D3H44 light chain Q124R_Q160K_T178R, N-terminal HA or FLAG tag; assay: LCCA, SPR of light chain tags, L1:L2 DNA 1:3 norm. to 1:1; other light chain m21
[36] = target: D3H44 light chain Q124R_Q160K_T178R, N-terminal HA or FLAG tag; assay: LCCA, SPR of light chain tags, L1:L2 DNA 1:3 norm. to 1:1; other light chain m23
[37] = target: tissue factor (TF) antigen (UniProt P13726); assay: SPR; Fab captured by anti-His, TF as analyte; LCCA set 9824
[38] = target: tissue factor (TF) antigen (UniProt P13726); assay: SPR; Fab captured by anti-His, TF as analyte; LCCA set 9347
[39] = target: tissue factor (TF) antigen (UniProt P13726); assay: SPR; Fab captured by anti-His, TF as analyte; LCCA set 9813
[40] = target: D3H44 Fab heavy chain L143E_K145T, C-terminal ABD2-His6 tag; assay: LCCA: heavy chain co-expressed with two light chains, SPR detection of light chain tags; L1:L2 DNA 1:3, normalized to 1:1; competing light chain m11
[41] = target: tissue factor (TF) antigen (UniProt P13726); assay: SPR, Fab captured on anti-penta His, TF injected; * estimated value taken from a Fab differing only in the L chain tag

“D3H44 Fab heterodimer, H L124R_H172T / L V133G_N137K_S174R_S176D (H1L1 Fab of LCCA sets 9374, 9375)” was tested, and the Change in KD with respect to wild type (-(log(KD design) - log(KD wt))) [1] was -0.16, the Kd [1] was 0.23 nM and the Change in KD with respect to wild type (-(log(KD design) - log(KD wt))) [2] was -0.16. The Kd [2] was 0.23 nM.

For “D3H44 Fab heterodimer, H A139W_L143E_K145T_Q179E / L F116A_Q124R_L135V_T178R (H1L1 Fab of LCCA set 9060)”, the Change in KD with respect to wild type (-(log(KD design) - log(KD wt))) [3] was 0.04 and the Kd [3] was 0.14 nM.

In the case of “D3H44 Fab heavy chain L143E_K145T_S188L, ABD2-His6 tagged”, the H1L1:H1L2 normalized median ratio [4] is reported as 74%, the H1L1:H1L2 normalized median scalar value ln(r1/f1) [4] is reported as 1.03 and the H1L1:H1L2 normalized median ratio [5] is reported as 57%. The H1L1:H1L2 normalized median scalar value ln(r1/f1) [5] was 0.28, the H1L1:H1L2 normalized median ratio [6] was 26% and the H1L1:H1L2 normalized median ratio [7] was 43%. The H1L1:H1L2 normalized median ratio [8] was 23%, the H1L1:H1L2 normalized median ratio [9] was 69% and the H1L1:H1L2 normalized median scalar value ln(r1/f1) [9] was 0.81. For the same substance, the H1L1:H1L2 normalized median ratio [10] was 16%, the H1L1:H1L2 normalized median ratio [11] was 31% and the H1L1:H1L2 normalized median ratio [12] was 77%. It also gave an H1L1:H1L2 normalized median scalar value ln(r1/f1) [12] of 1.22, an H1L1:H1L2 normalized median ratio [13] of 84% and an H1L1:H1L2 normalized median scalar value ln(r1/f1) [13] of 1.63. The H1L1:H1L2 normalized median ratio [14] was 24%, the H1L1:H1L2 normalized median ratio [15] was 21% and the H1L1:H1L2 normalized median ratio [16] was 76%. For the same substance, the H1L1:H1L2 normalized median scalar value ln(r1/f1) [16] was 4, the H1L1:H1L2 normalized median ratio [17] was 79% and the H1L1:H1L2 normalized median scalar value ln(r1/f1) [17] was 1.32.

Work on “D3H44 Fab heterodimer, H L124E_A139W / L F116A_V133G_L135V_S176R (H1L1 Fab of LCCA set 9116)” yielded a Change in KD with respect to wild type (-(log(KD design) - log(KD wt))) [18] of -0.02 and a Kd [18] of 0.16 nM.

“D3H44 light chain Q124E_S176L_T180E, N-terminal HA or FLAG tag” gave an H1L1:H1L2 normalized median ratio [19] of 43%, an H2L2:H2L1 normalized median ratio [20] of 97% and an H2L2:H2L1 normalized median ratio [21] of 97%.

Substance “D3H44 Fab heterodimer, H L124E / L S131T_V133G_S176R_T178Y (H1L1 Fab of LCCA set 9104)” has a Change in KD with respect to wild type (-(log(KD design) - log(KD wt))) [22] of -0.01 and a Kd [22] of 0.16 nM.

“D3H44 Fab heterodimer, heavy L124E_L143E_K145T / light Q124K_V133G_S176R_T178K” showed a Change in KD of h1|1 Fab heterodimer with respect to wild type (-(log(KD design) - log(KD wt))) [23] of -0.12 and a Kd [24] of 0.21 nM.

In the case of “D3H44 Fab heterodimer, H Q39E_K145T_Q179E / L Q38R_S131K (H1L1 Fab of LCCA set 9814)”, the Change in KD with respect to wild type (-(log(KD design) - log(KD wt))) [25] is reported as -0.01 and the Kd [25] is reported as 0.16 nM.

In the case of “D3H44 Fab heterodimer, H L45P_K145T_Q179E / L P44F_S131K (H1L1 Fab of LCCA sets 9746, 10549)”, the Change in KD with respect to wild type (-(log(KD design) - log(KD wt))) [26] is reported as -0.35, the Kd [26] is reported as 0.35 nM and the Change in KD with respect to wild type (-(log(KD design) - log(KD wt))) [27] is reported as -0.35. The Kd [27] was 0.35 nM, the Change in KD with respect to wild type (-(log(KD design) - log(KD wt))) [28] was -0.35 and the Kd [28] was 0.35 nM.

“D3H44 Fab heterodimer, heavy L124E_L143E_K145T / light Q124K_V133G_S176R_T178R” showed a Change in KD of h1|1 Fab heterodimer with respect to wild type (-(log(KD design) - log(KD wt))) [23] of -0.07 and a Kd [24] of 0.18 nM.

Substance “D3H44 Fab heavy chain Q179K, ABD2-His6 tagged” has an H2L2:H2L1 normalized median ratio [29] of 94%, an H2L2:H2L1 normalized median ratio [30] of 93% and an H2L2:H2L1 normalized median ratio [4] of 5%. The H2L2:H2L1 normalized median ratio [31] was 7%, the H2L2:H2L1 normalized median ratio [32] was 98% and the H2L2:H2L1 normalized median ratio [6] was 95%. The H2L2:H2L1 normalized median ratio [33] was 94%, the H2L2:H2L1 normalized median ratio [34] was 6% and the H2L2:H2L1 normalized median ratio [35] was 6%. It also gave an H2L2:H2L1 normalized median ratio [36] of 2%.

Work on “D3H44 Fab heterodimer, H Q39R_H172R_S186R / L Q38E_Q124E_Q160E_T180E (H1L1 Fab of LCCA set 9824)” yielded a Change in KD with respect to wild type (-(log(KD design) - log(KD wt))) [37] of 0.03 and a Kd [37] of 0.15 nM.

In the case of “D3H44 Fab heterodimer, H L124R_A125R_H172T / L V133G_N137K_S174R_S176D (H1L1 Fab of LCCA set 9347)”, the Change in KD with respect to wild type (-(log(KD design) - log(KD wt))) [38] is reported as -0.16 and the Kd [38] is reported as 0.23 nM.

“D3H44 Fab heterodimer, H Q39E_K145T_H172R_Q179E / L Q38R_S131K (H1L1 Fab of LCCA set 9813)” gave a Change in KD with respect to wild type (-(log(KD design) - log(KD wt))) [39] of -0.05 and a Kd [39] of 0.18 nM.

In the case of “D3H44 light chain S131E, N-terminal HA or FLAG tag”, the H1L1:H1L2 normalized median ratio [40] is reported as 53% and the H2L2:H2L1 normalized median ratio [20] is reported as 98%.

Substance “D3H44 Fab heterodimer H L124E_L143E_K145T / L Q124K_V133G_S176R_T178K (H1L1 Fab of LCCA Set # 9298)” has a Change in KD with respect to wild type (-(log(KD design) - log(KD wt))) [41] of -0.12 and a Kd [41] of 0.21 nM.
